The source of these data is US20150307625A1 (Bayer, published 2015).

The target in assay [1] is T1, human activated Protein C (human, UniProt P04070 43-461). As to the kind of experiment: cell-based or functional assay.
Assay [2] has as its target T1, human activated Protein C. In words: direct ELISA, aPC coated, hIgG1.
In another assay the target is T2, dog activated Protein C (dog, UniProt Q28278 43-456).
T2 construct: mature; also called dog aPC; dAPC
T2 sequence (looked up): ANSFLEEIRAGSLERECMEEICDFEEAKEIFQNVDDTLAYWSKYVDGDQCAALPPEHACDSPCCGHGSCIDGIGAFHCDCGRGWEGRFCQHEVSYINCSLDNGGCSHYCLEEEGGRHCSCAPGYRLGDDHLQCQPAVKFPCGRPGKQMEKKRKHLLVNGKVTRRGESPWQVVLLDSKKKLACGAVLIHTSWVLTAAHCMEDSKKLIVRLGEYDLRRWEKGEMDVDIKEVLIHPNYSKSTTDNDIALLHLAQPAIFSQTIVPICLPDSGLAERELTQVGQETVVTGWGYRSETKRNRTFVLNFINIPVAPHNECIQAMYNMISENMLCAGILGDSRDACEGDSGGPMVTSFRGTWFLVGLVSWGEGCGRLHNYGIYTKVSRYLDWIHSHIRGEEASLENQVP
In words: direct ELISA, antigen coated at 1 ug/ml, IgG at 20 nM, anti-human IgG-HRP, AmplexRed (RFU).

The target in assay [3] is T1, human activated Protein C. In words: ELISA titration, IgG against Fab. In general terms: In an ELISA, binding on a coated surface is turned into a signal by an enzyme label.

B1: R41E3 hIgG1 (antibody, V domains shown)
VH: EVQLLESGGGLVQPGGSLRLSCAASGFTFNNYAMTWVRQAPGKGLEWVSGVSWNGSRTHYADSVKGRFTISRDNSKNTLYLQMNSLRAEDTAVYYCARADSSSAGRWAGSLDYWGQGTLVTVTS
VL: LTQPPSASGTPGQRVTISCSGSSSNIGNNAVNWYQQLPGTAPKLLIYSNNQRPSGVPDRFSGSKSGTSASLAISGLRSEDEADYYCSSYTSSSTHVVFGGGTKLTVLG
notes: also called R41E3-IgG
In general, EC50 refers to the concentration that produces a half-maximal response. Higher therefore signals lower potency in that assay. Take B1: in assay [1], the “aPTT, inhibition of aPC activity at 163-fold molar excess” value was approximately 80%. The molecule further returned an EC50 in assay [2] of 1.76 nM. Besides, the binding result in the assay with dog activated Protein C was “no binding (tested: 20 nM)”. Besides, the “fold increase of binding affinity against the corresponding Fab” value in assay [3] was approximately 50 fold.
